Assay results reported in IntAct's records for PubMed 25416956.

B1: EF-hand domain-containing protein 1 (Homo sapiens), Q5JVL4 (parent)
chain: MVSNPVHGLPFLPGTSFKDSTKTAFHRSQTLSYRNGYAIVRRPTVGIGGDRLQFNQLSQAELDELASKAPVLTYGQPKQAPPADFIPAHVAFDKKVLKFDAYFQEDVPMSTEEQYRIRQVNIYYYLEDDSMSVIEPVVENSGILQGKLIKRQRLAKNDRGDHYHWKDLNRGINITIYGKTFRVVDCDQFTQVFLESQGIELNPPEKMALDPYTELRKQPLRKYVTPSDFDQLKQFLTFDKQVLRFYAIWDDTDSMYGECRTYIIHYYLMDDTVEIREVHERNDGRDPFPLLMNRQRVPKVLVENAKNFPQCVLEISDQEVLEWYTAKDFIVGKSLTILGRTFFIYDCDPFTRRYYKEKFGITDLPRIDVSKREPPPVKQELPPYNGFGLVEDSAQNCFALIPKAPKKDVIKMLVNDNKVLRYLAVLESPIPEDKDRRFVFSYFLATDMISIFEPPVRNSGIIGGKYLGRTKVVKPYSTVDNPVYYGPSDFFIGAVIEVFGHRFIILDTDEYVLKYMESNAAQYSPEALASIQNHVRKREAPAPEAESKQTEKDPGVQELEALIDTIQKQLKDHSCKDNIREAFQIYDKEASGYVDRDMFFKICESLNVPVDDSLVKELIRMCSHGEGKINYYNFVRAFSN
B2: EF-hand domain-containing protein 1 (Homo sapiens), Q5JVL4 (parent)
chain: B1 chain
partner: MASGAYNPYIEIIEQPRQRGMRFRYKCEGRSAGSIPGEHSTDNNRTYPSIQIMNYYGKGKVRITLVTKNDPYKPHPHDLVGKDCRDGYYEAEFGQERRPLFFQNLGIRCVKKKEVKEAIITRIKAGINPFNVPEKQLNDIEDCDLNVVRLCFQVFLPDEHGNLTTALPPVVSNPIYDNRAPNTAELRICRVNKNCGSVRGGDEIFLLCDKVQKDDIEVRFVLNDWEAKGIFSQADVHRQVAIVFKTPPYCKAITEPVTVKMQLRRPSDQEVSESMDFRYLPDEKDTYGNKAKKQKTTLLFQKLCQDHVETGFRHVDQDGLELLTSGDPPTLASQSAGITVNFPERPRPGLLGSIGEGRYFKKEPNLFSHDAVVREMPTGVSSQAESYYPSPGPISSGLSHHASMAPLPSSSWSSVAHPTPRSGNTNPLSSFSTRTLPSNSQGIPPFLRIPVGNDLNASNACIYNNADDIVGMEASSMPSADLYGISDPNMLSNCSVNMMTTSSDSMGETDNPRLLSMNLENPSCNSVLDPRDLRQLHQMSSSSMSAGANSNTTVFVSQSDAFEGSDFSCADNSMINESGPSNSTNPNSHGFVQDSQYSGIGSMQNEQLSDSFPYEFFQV
B3: EF-hand domain-containing protein 1 (Homo sapiens), Q5JVL4 (parent)
chain: B1 chain
partner: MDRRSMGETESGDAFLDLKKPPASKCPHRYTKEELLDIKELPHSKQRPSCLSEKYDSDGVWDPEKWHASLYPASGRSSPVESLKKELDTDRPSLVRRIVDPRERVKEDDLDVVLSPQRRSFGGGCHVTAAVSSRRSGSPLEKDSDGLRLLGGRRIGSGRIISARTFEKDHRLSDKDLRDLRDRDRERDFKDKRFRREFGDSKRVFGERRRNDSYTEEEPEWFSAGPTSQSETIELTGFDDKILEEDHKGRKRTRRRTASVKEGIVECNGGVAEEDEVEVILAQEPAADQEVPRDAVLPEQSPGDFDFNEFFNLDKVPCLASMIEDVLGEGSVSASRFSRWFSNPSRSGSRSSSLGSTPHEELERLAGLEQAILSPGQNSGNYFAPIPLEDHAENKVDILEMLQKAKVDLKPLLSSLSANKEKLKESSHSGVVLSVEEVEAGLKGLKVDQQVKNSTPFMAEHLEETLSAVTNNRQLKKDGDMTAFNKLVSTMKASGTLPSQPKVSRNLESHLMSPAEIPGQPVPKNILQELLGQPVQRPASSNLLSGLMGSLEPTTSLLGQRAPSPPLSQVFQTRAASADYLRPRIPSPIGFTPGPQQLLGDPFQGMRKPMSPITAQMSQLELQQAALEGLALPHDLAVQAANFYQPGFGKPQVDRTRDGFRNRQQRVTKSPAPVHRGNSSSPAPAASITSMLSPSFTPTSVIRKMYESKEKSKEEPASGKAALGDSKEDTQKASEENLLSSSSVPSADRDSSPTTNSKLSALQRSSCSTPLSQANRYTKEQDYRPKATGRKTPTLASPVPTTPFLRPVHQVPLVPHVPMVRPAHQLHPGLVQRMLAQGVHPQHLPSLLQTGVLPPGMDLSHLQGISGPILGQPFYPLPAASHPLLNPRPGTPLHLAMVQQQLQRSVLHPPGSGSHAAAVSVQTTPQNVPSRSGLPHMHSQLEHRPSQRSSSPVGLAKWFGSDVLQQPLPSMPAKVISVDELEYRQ
B4: Proton-coupled zinc antiporter SLC30A8 (Homo sapiens), Q8IWU4 (parent)
chain: MEFLERTYLVNDKAAKMYAFTLESVELQQKPVNKDQCPRERPEELESGGMYHCHSGSKPTEKGANEYAYAKWKLCSASAICFIFMIAEVVGGHIAGSLAVVTDAAHLLIDLTSFLLSLFSLWLSSKPPSKRLTFGWHRAEILGALLSILCIWVVTGVLVYLACERLLYPDYQIQATVMIIVSSCAVAANIVLTVVLHQRCLGHNHKEVQANASVRAAFVHALGDLFQSISVLISALIIYFKPEYKIADPICTFIFSILVLASTITILKDFSILLMEGVPKSLNYSGVKELILAVDGVLSVHSLHIWSLTMNQVILSAHVATAASRDSQVVRREIAKALSKSFTMHSLTIQMESPVDQDPDCLFCEDPCD
partner: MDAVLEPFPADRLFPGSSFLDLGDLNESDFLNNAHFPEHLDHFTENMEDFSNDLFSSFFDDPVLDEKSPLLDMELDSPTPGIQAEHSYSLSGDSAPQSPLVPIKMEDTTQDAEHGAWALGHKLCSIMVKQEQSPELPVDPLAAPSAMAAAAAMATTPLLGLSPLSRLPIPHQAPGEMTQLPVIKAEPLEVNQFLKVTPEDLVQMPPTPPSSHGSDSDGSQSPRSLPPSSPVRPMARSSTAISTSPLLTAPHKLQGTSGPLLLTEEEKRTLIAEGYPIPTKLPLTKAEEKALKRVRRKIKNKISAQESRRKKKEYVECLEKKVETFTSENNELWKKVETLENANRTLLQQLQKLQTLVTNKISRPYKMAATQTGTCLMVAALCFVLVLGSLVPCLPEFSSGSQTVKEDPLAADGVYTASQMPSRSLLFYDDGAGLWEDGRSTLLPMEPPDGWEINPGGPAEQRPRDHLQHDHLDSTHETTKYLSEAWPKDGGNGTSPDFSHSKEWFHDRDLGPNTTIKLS
B5: X-linked retinitis pigmentosa GTPase regulator (Homo sapiens), Q92834 (parent)
chain: MREPEELMPDSGAVFTFGKSKFAENNPGKFWFKNDVPVHLSCGDEHSAVVTGNNKLYMFGSNNWGQLGLGSKSAISKPTCVKALKPEKVKLAACGRNHTLVSTEGGNVYATGGNNEGQLGLGDTEERNTFHVISFFTSEHKIKQLSAGSNTSAALTEDGRLFMWGDNSEGQIGLKNVSNVCVPQQVTIGKPVSWISCGYYHSAFVTTDGELYVFGEPENGKLGLPNQLLGNHRTPQLVSEIPEKVIQVACGGEHTVVLTENAVYTFGLGQFGQLGLGTFLFETSEPKVIENIRDQTISYISCGENHTALITDIGLMYTFGDGRHGKLGLGLENFTNHFIPTLCSNFLRFIVKLVACGGCHMVVFAAPHRGVAKEIEFDEINDTCLSVATFLPYSSLTSGNVLQRTLSARMRRRERERSPDSFSMRRTLPPIEGTLGLSACFLPNSVFPRCSERNLQESVLSEQDLMQPEEPDYLLDEMTKEAEIDNSSTVESLGETTDILNMTHIMSLNSNEKSLKLSPVQKQKKQQTIGELTQDTALTENDDSDEYEEMSEMKEGKACKQHVSQGIFMTQPATTIEAFSDEEVGNDTGQVGPQADTDGEGLQKEVYRHENNNGVDQLDAKEIEKESDGGHSQKESEAEEIDSEKETKLAEIAGMKDLREREKSTKKMSPFFGNLPDRGMNTESEENKDFVKKRESCKQDVIFDSERESVEKPDSYMEGASESQQGIADGFQQPEAIEFSSGEKEDDEVETDQNIRYGRKLIEQGNEKETKPIISKSMAKYDFKCDRLSEIPEEKEGAEDSKGNGIEEQEVEANEENVKVHGGRKEKTEILSDDLTDKAEDHEFSKTEELKLEDVDEEINAENVESKKKTVGDDESVPTGYHSKTEGAERTNDDSSAETIEKKEKANLEERAICEYNENPKGYMLDDADSSSLEILENSETTPSKDMKKTKKIFLFKRVPSINQKIVKNNNEPLPEIKSIGDQIILKSDNKDADQNHMSQNHQNIPPTNTERRSKSCTIL
partner: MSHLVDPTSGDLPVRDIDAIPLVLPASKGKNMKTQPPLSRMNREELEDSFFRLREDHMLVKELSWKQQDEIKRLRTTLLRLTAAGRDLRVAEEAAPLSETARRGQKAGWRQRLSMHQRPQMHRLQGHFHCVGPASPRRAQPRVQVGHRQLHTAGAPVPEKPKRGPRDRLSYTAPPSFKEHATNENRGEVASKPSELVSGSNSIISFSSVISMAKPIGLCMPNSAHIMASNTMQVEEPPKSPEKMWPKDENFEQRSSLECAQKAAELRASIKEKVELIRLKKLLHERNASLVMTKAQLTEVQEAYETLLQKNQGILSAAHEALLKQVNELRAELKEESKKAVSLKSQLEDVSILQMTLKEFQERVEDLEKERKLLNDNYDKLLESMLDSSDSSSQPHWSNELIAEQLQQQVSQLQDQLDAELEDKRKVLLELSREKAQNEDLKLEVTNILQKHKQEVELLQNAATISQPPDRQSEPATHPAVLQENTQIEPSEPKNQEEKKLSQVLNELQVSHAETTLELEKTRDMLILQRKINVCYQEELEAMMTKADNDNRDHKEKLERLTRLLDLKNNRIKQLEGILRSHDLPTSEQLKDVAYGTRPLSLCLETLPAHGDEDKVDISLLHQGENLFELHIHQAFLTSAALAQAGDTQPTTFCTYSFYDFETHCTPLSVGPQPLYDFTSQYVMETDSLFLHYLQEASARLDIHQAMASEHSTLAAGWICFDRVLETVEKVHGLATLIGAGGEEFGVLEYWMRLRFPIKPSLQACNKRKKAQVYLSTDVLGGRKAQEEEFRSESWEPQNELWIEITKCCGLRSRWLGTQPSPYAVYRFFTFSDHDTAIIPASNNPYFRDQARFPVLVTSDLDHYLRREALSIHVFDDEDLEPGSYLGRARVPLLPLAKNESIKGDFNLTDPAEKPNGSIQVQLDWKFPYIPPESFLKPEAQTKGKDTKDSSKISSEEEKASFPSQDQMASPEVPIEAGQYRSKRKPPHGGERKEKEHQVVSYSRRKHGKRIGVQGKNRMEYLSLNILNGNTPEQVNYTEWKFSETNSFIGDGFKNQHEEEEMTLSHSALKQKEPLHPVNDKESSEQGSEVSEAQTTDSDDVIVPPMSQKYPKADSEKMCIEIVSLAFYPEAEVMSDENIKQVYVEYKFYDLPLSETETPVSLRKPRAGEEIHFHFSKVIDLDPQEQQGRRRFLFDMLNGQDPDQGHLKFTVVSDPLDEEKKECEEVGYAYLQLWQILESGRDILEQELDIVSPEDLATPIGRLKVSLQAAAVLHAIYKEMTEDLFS
B6: Lipopolysaccharide-induced tumor necrosis factor-alpha factor (Homo sapiens), Q99732 (parent)
chain: MSVPGPYQAATGPSSAPSAPPSYEETVAVNSYYPTPPAPMPGPTTGLVTGPDGKGMNPPSYYTQPAPIPNNNPITVQTVYVQHPITFLDRPIQMCCPSCNKMIVSQLSYNAGALTWLSCGSLCLLGCIAGCCFIPFCVDALQDVDHYCPNCRALLGTYKRL

Variants of: B1
Details: with itf2_human TCF4, P15884
Chain of itf2_human TCF4, P15884 (P15884 whole entry): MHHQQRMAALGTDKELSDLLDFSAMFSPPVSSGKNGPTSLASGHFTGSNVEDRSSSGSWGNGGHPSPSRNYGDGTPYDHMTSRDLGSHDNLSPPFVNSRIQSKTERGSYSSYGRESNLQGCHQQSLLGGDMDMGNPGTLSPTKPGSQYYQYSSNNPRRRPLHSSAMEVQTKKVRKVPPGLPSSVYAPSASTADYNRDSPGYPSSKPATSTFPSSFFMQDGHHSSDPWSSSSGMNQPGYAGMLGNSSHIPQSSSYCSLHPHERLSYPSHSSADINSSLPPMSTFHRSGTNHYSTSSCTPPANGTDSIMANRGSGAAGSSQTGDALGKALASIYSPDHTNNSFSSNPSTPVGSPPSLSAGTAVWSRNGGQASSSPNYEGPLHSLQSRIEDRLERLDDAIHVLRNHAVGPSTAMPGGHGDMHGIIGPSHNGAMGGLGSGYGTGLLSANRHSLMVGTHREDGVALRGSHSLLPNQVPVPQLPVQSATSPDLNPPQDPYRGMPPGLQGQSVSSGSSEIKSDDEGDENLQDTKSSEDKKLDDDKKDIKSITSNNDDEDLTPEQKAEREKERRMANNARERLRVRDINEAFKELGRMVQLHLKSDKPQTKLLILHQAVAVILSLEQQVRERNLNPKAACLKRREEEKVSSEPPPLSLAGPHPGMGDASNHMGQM

Variant	effect of a mutation on the interaction
P77T	disrupting interaction

Variants of: B1
Details: with ikzf3_human IKZF3, Q9UKT9
Chain of ikzf3_human IKZF3, Q9UKT9 (Q9UKT9 whole entry): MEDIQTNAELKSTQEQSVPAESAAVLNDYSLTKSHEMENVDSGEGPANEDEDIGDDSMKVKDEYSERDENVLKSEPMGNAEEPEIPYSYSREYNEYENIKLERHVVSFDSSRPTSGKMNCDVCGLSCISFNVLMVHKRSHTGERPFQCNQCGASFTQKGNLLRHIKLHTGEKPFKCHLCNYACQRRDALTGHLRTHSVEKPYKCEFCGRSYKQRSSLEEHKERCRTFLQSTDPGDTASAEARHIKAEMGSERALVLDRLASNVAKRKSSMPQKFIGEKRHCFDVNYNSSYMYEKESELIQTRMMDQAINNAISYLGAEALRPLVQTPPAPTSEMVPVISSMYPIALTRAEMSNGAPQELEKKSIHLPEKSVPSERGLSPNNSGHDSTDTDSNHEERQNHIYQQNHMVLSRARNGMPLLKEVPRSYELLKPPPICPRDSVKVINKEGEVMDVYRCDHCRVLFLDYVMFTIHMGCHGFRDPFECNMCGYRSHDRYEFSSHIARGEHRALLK

Variant	effect of a mutation on the interaction
P77T	disrupting interaction

Variants of: B2
Details: with rel_human REL

Variant	effect of a mutation on the interaction
R221H	disrupting interaction

Variants of: B2
Details: with rel_human REL
Remark: another data set of the same source

Variant	effect of a mutation on the interaction
A394S	disrupting interaction

Variants of: B2
Details: with rel_human REL
Remark: another data set of the same source

Variant	effect of a mutation on the interaction
T508R	disrupting interaction

Variants of: B2
Details: with rel_human REL
Remark: another data set of the same source

Variant	effect of a mutation on the interaction
P77T	disrupting interaction

Variants of: B3
Details: with 4et_human EIF4ENIF1, Q9NRA8

Variant	effect of a mutation on the interaction
R221H	disrupting interaction

Variants of: B3
Details: with 4et_human EIF4ENIF1, Q9NRA8
Remark: another data set of the same source

Variant	effect of a mutation on the interaction
A394S	disrupting interaction

Variants of: B3
Details: with 4et_human EIF4ENIF1, Q9NRA8
Remark: another data set of the same source

Variant	effect of a mutation on the interaction
T508R	disrupting interaction

Variants of: B3
Details: with 4et_human EIF4ENIF1, Q9NRA8
Remark: another data set of the same source

Variant	effect of a mutation on the interaction
P77T	disrupting interaction

Variants of: B4
Details: with cr3l1_human CREB3L1, Q96BA8

Variant	effect of a mutation on the interaction
E276W	disrupting interaction

Variants of: B5
Details: with rpgr1_human RPGRIP1, Q96KN7

Variant	effect of a mutation on the interaction
T255I	disrupting interaction

Variants of: B5
Details: with rpgr1_human RPGRIP1, Q96KN7
Remark: another data set of the same source

Variant	effect of a mutation on the interaction
H98Q	disrupting interaction

Variants of: B6
Details: with hgs_human HGS

Variant	effect of a mutation on the interaction
A111G	disrupting interaction

Variants of: B6
Details: with stam2_human STAM2, O75886

Variant	effect of a mutation on the interaction
A111G	disrupting interaction

Variants of: B6
Details: with reep6_human REEP6, Q96HR9
Chain of reep6_human REEP6, Q96HR9 (Q96HR9 whole entry): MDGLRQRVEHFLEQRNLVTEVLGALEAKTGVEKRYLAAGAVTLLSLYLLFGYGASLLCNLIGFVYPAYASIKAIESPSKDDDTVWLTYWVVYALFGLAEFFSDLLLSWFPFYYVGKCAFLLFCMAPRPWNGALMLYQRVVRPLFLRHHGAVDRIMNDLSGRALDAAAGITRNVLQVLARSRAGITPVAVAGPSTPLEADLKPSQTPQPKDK

Variant	effect of a mutation on the interaction
A111G	disrupting interaction

Variants of: B6
Details: with UBQLN1, Q9UMX0-2
Chain of UBQLN1, Q9UMX0-2 (Q9UMX0 other isoform, or with tags, fused parts or gaps): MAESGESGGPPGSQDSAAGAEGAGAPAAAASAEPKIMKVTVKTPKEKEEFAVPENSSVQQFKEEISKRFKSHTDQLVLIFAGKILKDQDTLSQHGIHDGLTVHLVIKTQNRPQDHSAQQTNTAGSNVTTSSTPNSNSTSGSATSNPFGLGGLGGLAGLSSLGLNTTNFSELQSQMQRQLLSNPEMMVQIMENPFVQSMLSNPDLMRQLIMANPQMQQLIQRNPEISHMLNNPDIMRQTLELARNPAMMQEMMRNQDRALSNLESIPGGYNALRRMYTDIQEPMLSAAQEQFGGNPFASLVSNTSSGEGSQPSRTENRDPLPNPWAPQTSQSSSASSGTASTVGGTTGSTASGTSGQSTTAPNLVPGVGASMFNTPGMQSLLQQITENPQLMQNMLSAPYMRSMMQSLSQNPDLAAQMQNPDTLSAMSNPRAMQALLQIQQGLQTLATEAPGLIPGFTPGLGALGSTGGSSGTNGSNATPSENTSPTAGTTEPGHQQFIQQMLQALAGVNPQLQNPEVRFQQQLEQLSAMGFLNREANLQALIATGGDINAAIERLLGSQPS

Variant	effect of a mutation on the interaction
A111G	disrupting interaction

Variants of: B6
Details: with ubql1_human UBQLN1, Q9UMX0
Chain of ubql1_human UBQLN1, Q9UMX0 (Q9UMX0 whole entry): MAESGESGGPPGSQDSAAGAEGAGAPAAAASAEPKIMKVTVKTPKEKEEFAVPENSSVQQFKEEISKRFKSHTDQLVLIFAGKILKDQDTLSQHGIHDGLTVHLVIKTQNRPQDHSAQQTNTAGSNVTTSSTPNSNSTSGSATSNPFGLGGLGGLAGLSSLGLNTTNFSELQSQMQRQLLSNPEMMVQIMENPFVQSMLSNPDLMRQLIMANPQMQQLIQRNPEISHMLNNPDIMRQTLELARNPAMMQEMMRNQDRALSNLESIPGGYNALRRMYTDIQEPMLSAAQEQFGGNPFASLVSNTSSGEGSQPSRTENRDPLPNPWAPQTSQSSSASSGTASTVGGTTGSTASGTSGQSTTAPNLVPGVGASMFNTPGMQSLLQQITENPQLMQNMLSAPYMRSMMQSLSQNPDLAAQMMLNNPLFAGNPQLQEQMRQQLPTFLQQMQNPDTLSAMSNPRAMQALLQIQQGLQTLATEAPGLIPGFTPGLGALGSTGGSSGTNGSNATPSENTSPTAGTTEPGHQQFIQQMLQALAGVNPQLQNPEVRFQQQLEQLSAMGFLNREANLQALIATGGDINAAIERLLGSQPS

Variant	effect of a mutation on the interaction
A111G	disrupting interaction
